Values quoted from earlier work as cited in patent publication US20200306346A1 (ADOCIA, priority 2017, published 2020).

Legend:
[1] = test system: mammalian cells in culture
[2] = test system: patients; conditions: in vivo

| Substance | cytotoxicity [1] | inflammatory responses at the first dose [2] |
| --- | --- | --- |
| fibrillated human glucagon: "potentially dangerous nature of these fibrils: fibrillated human glucagon being cytotoxic in mammalian cells in culture" | cytotoxic | – |
| pegnivacogin | – | 3 out of 640 |
